Assay [1] addresses T1, human amylin-3(a) receptor (human, UniProt P30988 25-474; O60896 24-148).
T1 sequence (looked up) 1: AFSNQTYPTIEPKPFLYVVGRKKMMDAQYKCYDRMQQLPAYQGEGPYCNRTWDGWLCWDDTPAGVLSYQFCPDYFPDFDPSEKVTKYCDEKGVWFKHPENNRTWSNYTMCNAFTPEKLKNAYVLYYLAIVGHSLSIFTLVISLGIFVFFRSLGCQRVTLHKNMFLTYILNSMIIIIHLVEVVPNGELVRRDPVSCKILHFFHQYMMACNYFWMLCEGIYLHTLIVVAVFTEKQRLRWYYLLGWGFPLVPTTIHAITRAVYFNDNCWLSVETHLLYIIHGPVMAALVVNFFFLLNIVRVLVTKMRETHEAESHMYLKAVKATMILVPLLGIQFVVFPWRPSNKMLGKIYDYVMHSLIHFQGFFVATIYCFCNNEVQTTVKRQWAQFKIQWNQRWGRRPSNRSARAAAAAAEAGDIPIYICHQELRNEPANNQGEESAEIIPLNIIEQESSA
T1 sequence (looked up) 2: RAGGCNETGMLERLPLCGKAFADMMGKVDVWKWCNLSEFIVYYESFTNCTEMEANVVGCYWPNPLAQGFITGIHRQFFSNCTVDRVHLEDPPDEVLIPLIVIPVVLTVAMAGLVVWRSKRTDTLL
Description: cell-based or functional assay.

Assay [2] deals with T2, human calcitonin receptor (a) (human, UniProt P30988 25-474).
T2 sequence (looked up): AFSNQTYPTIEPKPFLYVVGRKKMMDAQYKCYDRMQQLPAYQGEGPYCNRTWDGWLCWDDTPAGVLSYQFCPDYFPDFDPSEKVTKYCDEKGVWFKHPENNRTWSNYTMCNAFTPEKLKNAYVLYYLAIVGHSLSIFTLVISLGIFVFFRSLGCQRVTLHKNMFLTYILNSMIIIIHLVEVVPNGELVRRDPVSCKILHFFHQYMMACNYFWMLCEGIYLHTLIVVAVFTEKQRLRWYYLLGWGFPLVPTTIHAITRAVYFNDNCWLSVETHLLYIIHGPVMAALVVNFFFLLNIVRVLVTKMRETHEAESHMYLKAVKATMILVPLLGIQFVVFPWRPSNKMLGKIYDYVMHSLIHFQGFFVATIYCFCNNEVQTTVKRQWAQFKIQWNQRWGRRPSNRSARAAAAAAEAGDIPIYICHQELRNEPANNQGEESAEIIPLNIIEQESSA
Description: cell-based or functional assay.

*1 amine or outer side, *2 acyl side, *3 side chain or, on linkers, in order; H or OH if unused. The star is where a group is joined. C20 diacid = O=C(O)CCCCCCCCCCCCCCCCCCC(=O)*; C18 diacid = O=C(O)CCCCCCCCCCCCCCCCC(=O)*; γGlu = O=C(O)[C@H](CCC(=O)[*:2])N[*:1]

B1: N^1-[(4S)-4-carboxy-4-(19-carboxynonadecanoylamino)butanoyl]-[Ala1,Ser2,His3,Leu4,Ser5,Ala7,Gln8,Glu14,His17,Asp21, Pro22,Pro27,Asp31, Pro34,Asp35, … (peptide)
peptide: {C20 diacid-γGlu}-ASHLSTAQTQRLAEFLHHSSDPFGAIPSSTDVGPDTP-NH2
SMILES: CC[C@H](C)[C@H](NC(=O)[C@H](C)NC(=O)CNC(=O)[C@H](Cc1ccccc1)NC(=O)[C@@H]1CCCN1C(=O)[C@H](CC(=O)O)NC(=O)[C@H](CO)NC(=O)[C@H](CO)NC(=O)[C@H](Cc1c[nH]cn1)NC(=O)[C@H](Cc1c[nH]cn1)NC(=O)[C@H](CC(C)C)NC(=O)[C@H](Cc1ccccc1)NC(=O)[C@H](CCC(=O)O)NC(=O)[C@H](C)NC(=O)[C@H](CC(C)C)NC(=O)[C@H](CCCNC(=N)N)NC(=O)[C@H](CCC(N)=O)NC(=O)[C@@H](NC(=O)[C@H](CCC(N)=O)NC(=O)[C@H](C)NC(=O)[C@@H](NC(=O)[C@H](CO)NC(=O)[C@H](CC(C)C)NC(=O)[C@H](Cc1c[nH]cn1)NC(=O)[C@H](CO)NC(=O)[C@H](C)NC(=O)CC[C@H](NC(=O)CCCCCCCCCCCCCCCCCCC(=O)O)C(=O)O)[C@@H](C)O)[C@@H](C)O)C(=O)N1CCC[C@H]1C(=O)N[C@@H](CO)C(=O)N[C@@H](CO)C(=O)N[C@H](C(=O)N[C@@H](CC(=O)O)C(=O)N[C@H](C(=O)NCC(=O)N1CCC[C@H]1C(=O)N[C@@H](CC(=O)O)C(=O)N[C@H](C(=O)N1CCC[C@H]1C(N)=O)[C@@H](C)O)C(C)C)[C@@H](C)O
B1: the “hAmyR3 potency, EC50 (pM); CRE-luciferase reporter in BHK cells” value (“hAmyR3 potency, EC50 (pM)” below) in assay [1] amounted to 0.86 pM. In addition, in assay [2], the “hCalcR potency, EC50 (pM); CRE-luciferase reporter in BHK cells” value (“hCalcR potency, EC50 (pM)” for short) is 1.25 pM.

B2: N^1-[(4S)-4-carboxy-4-(19-carboxynonadecanoylamino)butanoyl]-[Ala1,Gly2, His3,Leu4,Ser5,Ala7,Gln8,Glu14,His17,Asp21, Pro22, Pro27,Asp31, Pro34,Asp35, … (peptide)
peptide: {C20 diacid-γGlu}-AGHLSTAQTQRLAEFLHHSSDPFGAIPSSTDVGPDTP-NH2
SMILES: CC[C@H](C)[C@H](NC(=O)[C@H](C)NC(=O)CNC(=O)[C@H](Cc1ccccc1)NC(=O)[C@@H]1CCCN1C(=O)[C@H](CC(=O)O)NC(=O)[C@H](CO)NC(=O)[C@H](CO)NC(=O)[C@H](Cc1c[nH]cn1)NC(=O)[C@H](Cc1c[nH]cn1)NC(=O)[C@H](CC(C)C)NC(=O)[C@H](Cc1ccccc1)NC(=O)[C@H](CCC(=O)O)NC(=O)[C@H](C)NC(=O)[C@H](CC(C)C)NC(=O)[C@H](CCCNC(=N)N)NC(=O)[C@H](CCC(N)=O)NC(=O)[C@@H](NC(=O)[C@H](CCC(N)=O)NC(=O)[C@H](C)NC(=O)[C@@H](NC(=O)[C@H](CO)NC(=O)[C@H](CC(C)C)NC(=O)[C@H](Cc1c[nH]cn1)NC(=O)CNC(=O)[C@H](C)NC(=O)CC[C@H](NC(=O)CCCCCCCCCCCCCCCCCCC(=O)O)C(=O)O)[C@@H](C)O)[C@@H](C)O)C(=O)N1CCC[C@H]1C(=O)N[C@@H](CO)C(=O)N[C@@H](CO)C(=O)N[C@H](C(=O)N[C@@H](CC(=O)O)C(=O)N[C@H](C(=O)NCC(=O)N1CCC[C@H]1C(=O)N[C@@H](CC(=O)O)C(=O)N[C@H](C(=O)N1CCC[C@H]1C(N)=O)[C@@H](C)O)C(C)C)[C@@H](C)O
Consider B2, for which the “hAmyR3 potency, EC50 (pM)” value in assay [1] amounted to 1.68 pM. For the same molecule, the “hCalcR potency, EC50 (pM)” value in assay [2] was 1.81 pM.

B3: N^1-[(4S)-4-carboxy-4-(17-carboxyheptadecanoylamino)butanoyl]-[Ala1,Gly2,Ser3,Leu4,Ser5,Ala7,Gln8,Glu14,His17,Asp21, Pro22,Pro27,Asp31, Pro34,Asp35, … (peptide)
peptide: {C18 diacid-γGlu}-AGSLSTAQTQRLAEFLHHSSDPFGAIPSSTDVGPDTP-NH2
SMILES: CC[C@H](C)[C@H](NC(=O)[C@H](C)NC(=O)CNC(=O)[C@H](Cc1ccccc1)NC(=O)[C@@H]1CCCN1C(=O)[C@H](CC(=O)O)NC(=O)[C@H](CO)NC(=O)[C@H](CO)NC(=O)[C@H](Cc1c[nH]cn1)NC(=O)[C@H](Cc1c[nH]cn1)NC(=O)[C@H](CC(C)C)NC(=O)[C@H](Cc1ccccc1)NC(=O)[C@H](CCC(=O)O)NC(=O)[C@H](C)NC(=O)[C@H](CC(C)C)NC(=O)[C@H](CCCNC(=N)N)NC(=O)[C@H](CCC(N)=O)NC(=O)[C@@H](NC(=O)[C@H](CCC(N)=O)NC(=O)[C@H](C)NC(=O)[C@@H](NC(=O)[C@H](CO)NC(=O)[C@H](CC(C)C)NC(=O)[C@H](CO)NC(=O)CNC(=O)[C@H](C)NC(=O)CC[C@H](NC(=O)CCCCCCCCCCCCCCCCC(=O)O)C(=O)O)[C@@H](C)O)[C@@H](C)O)C(=O)N1CCC[C@H]1C(=O)N[C@@H](CO)C(=O)N[C@@H](CO)C(=O)N[C@H](C(=O)N[C@@H](CC(=O)O)C(=O)N[C@H](C(=O)NCC(=O)N1CCC[C@H]1C(=O)N[C@@H](CC(=O)O)C(=O)N[C@H](C(=O)N1CCC[C@H]1C(N)=O)[C@@H](C)O)C(C)C)[C@@H](C)O
Take B3: the “hAmyR3 potency, EC50 (pM)” value in assay [1] worked out at 1.44 pM. For the same molecule, the “hCalcR potency, EC50 (pM)” value in assay [2] was 1.49 pM.

Values taken from US20260209293A1 (Novo Nordisk, published 2026).
